B1: ATE1 (parent)
chain: YGSFHQQYWLDGKIIAVGVIDILP
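Note: lentivirally expressed fusions sorted by FACS into six bins by GFP to DsRed ratio, PSI derived from sequencing read proportions per bin multiplied by bin number.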

The data set covers variants of B1. In words: protein stability index of a GFP-peptide fusion (GPS, HEK-293T) (PSI 1-6); higher = more stable. The note with it: c terminus: a fixed tail appended.
YGSFHQQYWLDGKIIATGVIDILP [V17T]: the protein stability index was 3.29.
Then YGSFHQQYWLDGKIIAIGVIDILP [V17I], with 1.95; and YGSFHQQYWLDGKIIALGVIDILP [V17L], with 2.42; and YGSFHQQYWLDGKIIANGVIDILP [V17N], with 2.82.
With YGSFHQQYWLDGKIIAYGVIDILP [V17Y] the figure was 2.91; with YGSFHQQYWLDGKIIAMGVIDILP [V17M], 3.42; with YGSFHQQYWLDGKIIARGVIDILP [V17R], 3.21.
Then YGSFHQQYWLDGKIIADGVIDILP [V17D], with 2.26.
On to YGSFHQQYWLDGKIIAFGVIDILP [V17F], for which the protein stability index was 4.21.
In the case of YGSFHQQYWLDGKIIAAGVIDILP [V17A], the protein stability index stood at 3.66.
Turning to YGSFHQQYWLDGKIIAWGVIDILP [V17W], the protein stability index was 3.
With YGSFHQQYWLDGKIIACGVIDILP [V17C] the figure was 3.27; with YGSFHQQYWLDGKIIAHGVIDILP [V17H], 3.08.
Then YGSFHQQYWLDGKIIAPGVIDILP [V17P], with 1.66.
Then YGSFHQQYWLDGKIIAVGVIIILP [D21I], with 2.97.
In the case of YGSFHQQYWLDGKIIAVGVIFILP [D21F], the protein stability index was found to be 4.18.
With YGSFHQQYWLDGKIIAVGVIWILP [D21W] the figure was 4.17; with YGSFHQQYWLDGKIIAVGVIYILP [D21Y], 1.97; with YGSFHQQYWLDGKIIAVGVITILP [D21T], 3.
For YGSFHQQYWLDGKIIAVGVIMILP [D21M], the protein stability index amounted to 1.81.
With YGSFHQQYWLDGKIIAVGVIQILP [D21Q] the figure was 3.26; with YGSFHQQYWLDGKIIAVGVIVILP [D21V], 4.01.
With YGSFHQQYWLDGKIIAVGVIPILP [D21P] the figure was 2.97; with YGSFHQQYWLDGKIIAVGVINILP [D21N], 2.85; with YGSFHQQYWLDGKIIAVGVISILP [D21S], 3.23.
With YGSFHQQYWLDGKIIAVGVICILP [D21C] the figure was 3.23; with YGSFHQQYWLDGKIIAVGVIRILP [D21R], 3.36.
As to YGSFHQQYWLDGKIIAVGVIEILP [D21E], the protein stability index worked out at 3.01.
With YGSFHQQYWLDGAIIAVGVIDILP [K13A] the figure was 2.3; with YGSFHQQYWLDGLIIAVGVIDILP [K13L], 3.1.
Then YGSFHQQYWLDGRIIAVGVIDILP [K13R], with 2; and YGSFHQQYWLDGVIIAVGVIDILP [K13V], with 2.63; and YGSFHQQYWLDGIIIAVGVIDILP [K13I], with 1.1.
Then YGSFHQQYWLDGTIIAVGVIDILP [K13T], with 2.54.
As for YGSFHQQYWLDGWIIAVGVIDILP [K13W], the protein stability index came to 1.94.
With YGSFHQQYWLDGPIIAVGVIDILP [K13P] the figure was 2.99; with YGSFHQQYWLDGFIIAVGVIDILP [K13F], 2.76.
Then YGSFHQQYWLDGDIIAVGVIDILP [K13D], with 2.19.
With YGSFHQQYWLDGCIIAVGVIDILP [K13C] the figure was 2.44.
For the variant YGSFHQQYWLDGMIIAVGVIDILP [K13M], the protein stability index was found to be 3.74.
YGSFHQQYWLDGEIIAVGVIDILP [K13E]: the protein stability index stood at 2.45.
With YGSFHQQYWLDGNIIAVGVIDILP [K13N], the protein stability index came to 2.78.
Then YGSFHQQYWLDGKIIAVGVMDILP [I20M], with 2.59; and YGSFHQQYWLDGKIIAVGVRDILP [I20R], with 2.48; and YGSFHQQYWLDGKIIAVGVCDILP [I20C], with 1.22.
With YGSFHQQYWLDGKIIAVGVADILP [I20A], the protein stability index was found to be 3.4.
Then YGSFHQQYWLDGKIIAVGVDDILP [I20D], with 2.41; and YGSFHQQYWLDGKIIAVGVLDILP [I20L], with 3.46.
Then YGSFHQQYWLDGKIIAVGVYDILP [I20Y], with 1.81.
With YGSFHQQYWLDGKIIAVGVPDILP [I20P] the figure was 2.53.
YGSFHQQYWLDGKIIAVGVFDILP [I20F]: the protein stability index was determined as 4.08.
With YGSFHQQYWLDGKIIAVGVSDILP [I20S] the figure was 2.38; with YGSFHQQYWLDGKIIAVGVWDILP [I20W], 1.38; with YGSFHQQYWLDGKIIAVGVEDILP [I20E], 1.65.
Then YGSFHQQYWLDGKIIAVGVIDILI [P24I], with 2.73.
With YGSFHQQYWLDGKIIAVGVIDILW [P24W] the figure was 3.2; with YGSFHQQYWLDGKIIAVGVIDILS [P24S], 1.79.
Turning to YGSFHQQYWLDGKIIAVGVIDILM [P24M], the protein stability index worked out at 2.18.
Then YGSFHQQYWLDGKIIAVGVIDILA [P24A], with 2.06; and YGSFHQQYWLDGKIIAVGVIDILG [P24G], with 3.18; and YGSFHQQYWLDGKIIAVGVIDILF [P24F], with 1.69.
With YGSFHQQYWLDGKIIAVGVIDILK [P24K] the figure was 1.04; with YGSFHQQYWLDGKIIAVGVIDILL [P24L], 4.25; with YGSFHQQYWLDGKIIAVGVIDILQ [P24Q], 2.51.
With YGSFHQQYWLDGKIIAVGVIDILV [P24V] the figure was 3.01.
On to YGSFHQQYWLDGKNIAVGVIDILP [I14N], for which the protein stability index is 4.29.
With YGSFHQQYWLDGKAIAVGVIDILP [I14A] the figure was 3.24; with YGSFHQQYWLDGKGIAVGVIDILP [I14G], 2.26; with YGSFHQQYWLDGKYIAVGVIDILP [I14Y], 1.49.
With YGSFHQQYWLDGKPIAVGVIDILP [I14P] the figure was 2.95.
Take YGSFHQQYWLDGKMIAVGVIDILP [I14M]: the protein stability index stood at 4.33.
With YGSFHQQYWLDGKKIAVGVIDILP [I14K], the protein stability index turned out to be 2.41.
Then YGSFHQQYWLDGKQIAVGVIDILP [I14Q], with 2.72; and YGSFHQQYWLDGKSIAVGVIDILP [I14S], with 1.85; and YGSFHQQYWLDGKEIAVGVIDILP [I14E], with 2.66.
With YGSFHQQYWLDGKCIAVGVIDILP [I14C] the figure was 2.81.
With YGSFHQQYWLDGKTIAVGVIDILP [I14T] the figure was 2.75; with YGSFHQQYWLDGKWIAVGVIDILP [I14W], 2.62.
Consider YGSFHQQYWLDGKIIAVGVIDVLP [I22V], for which the protein stability index came out at 2.14.
With YGSFHQQYWLDGKIIAVGVIDKLP [I22K] the figure was 1.43.
Then YGSFHQQYWLDGKIIAVGVIDWLP [I22W], with 2.77; and YGSFHQQYWLDGKIIAVGVIDTLP [I22T], with 1.74.
As to YGSFHQQYWLDGKIIAVGVIDFLP [I22F], the protein stability index came out at 2.93.
With YGSFHQQYWLDGKIIAVGVIDYLP [I22Y] the figure was 2.23.
With YGSFHQQYWLDGKIIAVGVIDSLP [I22S] the figure was 3.81; with YGSFHQQYWLDGKIIAVGVIDPLP [I22P], 3.32.
Then YGSFHQQYWLDGKIIAVGVIDDLP [I22D], with 2.81; and YGSFHQQYWLDGKIIAVGVIDMLP [I22M], with 3.15; and YGSFHQQYWLDGKIIAVGVIDQLP [I22Q], with 2.42.
For YGSFHQQYWLDGKIIAVGVIDALP [I22A], the protein stability index turned out to be 3.85.
With YGSFHQQYWLDGKIIAVGVIDRLP [I22R] the figure was 2.18.
Consider YGSFHQQYWLDGKIIAVGVIDELP [I22E], for which the protein stability index is 3.75.
Then YGSFHQQYWLDGKIIAVGVIDHLP [I22H], with 2.9; and YGSFHQQYWLDQKIIAVGVIDILP [G12Q], with 2.45.

The values above are taken from the supplement of paper PMC10567573.
